From doi:10.1101/667956 (bioRxiv, 2019)
Several values for one entry are separate records, joined by “and”; a condition that tells them apart may be missing. Equal entries are not always repeated.

Columns and labels:
SEC-MALS [1] = target: the molecule itself; assay: SEC-MALS
cross-linking = target: the molecule itself; assay: cross-linking
[2] = target: the molecule itself; assay: single-molecule TIRF photobleaching
DLS = target: the molecule itself; assay: DLS
SEC-MALS [3] = target: the molecule itself; assay: SEC-MALS; remark: listed apart in the source
SAXS = target: the molecule itself; assay: SAXS

In the case of QETIANLERWVKREMHVWREVFYRLERWADRLES [synthetic peptide of the Arc oligomerization region (residues 99-132)], the “stoichiometry N” value (SEC-MALS [1]) is reported as 6.

B1: mTurquoise2-fused full-length Arc (1-396), wild type (natural protein)
chain: MELDHMTTGGLHAYPAPRGGPAAKPNVILQIGKCRAEMLEHVRRTHRHLLTEVSKQVERELKGLHRSVGKLENNLDGYVPTGDSQRWKKSIKACLCRCQETIANLERWVKREMHVWREVFYRLERWADRLESMGGKYPVGSEPARHTVSVGVGGPEPYCQEADGYDYTVSPYAITPPPAAGELPEQESVGAQQYQSWVPGEDGQPSPGVDTQIFEDPREFLSHLEEYLRQVGGSEEYWLSQIQNHMNGPAKKWWEFKQGSVKNWVEFKKEFLQYSEGTLSREAIQRELDLPQKQGEPLDQFLWRKRDLYQTLYVDAEEEEIIQYVVGTLQPKFKRFLRHPLPKTLEQLIQRGMEVQDGLEQAAEPSVTPLPTEDETEALTPALTSESVASDRTQPE
In the case of B1, the “stoichiometry N” value (cross-linking) is reported as 2 and 3.

B2: recombinantly purified rat Arc^s113-119A with an N-terminal SNAP tag and a C-terminal AviTag (natural protein)
chain: MELDHMTTGGLHAYPAPRGGPAAKPNVILQIGKCRAEMLEHVRRTHRHLLTEVSKQVERELKGLHRSVGKLENNLDGYVPTGDSQRWKKSIKACLCRCQETIANLERWVKREAAAAAAAFYRLERWADRLESMGGKYPVGSEPARHTVSVGVGGPEPYCQEADGYDYTVSPYAITPPPAAGELPEQESVGAQQYQSWVPGEDGQPSPGVDTQIFEDPREFLSHLEEYLRQVGGSEEYWLSQIQNHMNGPAKKWWEFKQGSVKNWVEFKKEFLQYSEGTLSREAIQRELDLPQKQGEPLDQFLWRKRDLYQTLYVDAEEEEIIQYVVGTLQPKFKRFLRHPLPKTLEQLIQRGMEVQDGLEQAAEPSVTPLPTEDETEALTPALTSESVASDRTQPE
modifications: AlexaFluor488 SNAP substrate on the SNAP tag; C-terminally biotinylated (AviTag)
B2: binds [2].

B3: mTq2-fused full-length Arc^s113-119A (natural protein)
chain: MELDHMTTGGLHAYPAPRGGPAAKPNVILQIGKCRAEMLEHVRRTHRHLLTEVSKQVERELKGLHRSVGKLENNLDGYVPTGDSQRWKKSIKACLCRCQETIANLERWVKREAAAAAAAFYRLERWADRLESMGGKYPVGSEPARHTVSVGVGGPEPYCQEADGYDYTVSPYAITPPPAAGELPEQESVGAQQYQSWVPGEDGQPSPGVDTQIFEDPREFLSHLEEYLRQVGGSEEYWLSQIQNHMNGPAKKWWEFKQGSVKNWVEFKKEFLQYSEGTLSREAIQRELDLPQKQGEPLDQFLWRKRDLYQTLYVDAEEEEIIQYVVGTLQPKFKRFLRHPLPKTLEQLIQRGMEVQDGLEQAAEPSVTPLPTEDETEALTPALTSESVASDRTQPE
In the case of B3, the “stoichiometry N” value (cross-linking) is reported as 2.

B4: mTq2-fused full-length Arc^s92-98A (natural protein)
chain: MELDHMTTGGLHAYPAPRGGPAAKPNVILQIGKCRAEMLEHVRRTHRHLLTEVSKQVERELKGLHRSVGKLENNLDGYVPTGDSQRWKKSIAAAAAAAQETIANLERWVKREMHVWREVFYRLERWADRLESMGGKYPVGSEPARHTVSVGVGGPEPYCQEADGYDYTVSPYAITPPPAAGELPEQESVGAQQYQSWVPGEDGQPSPGVDTQIFEDPREFLSHLEEYLRQVGGSEEYWLSQIQNHMNGPAKKWWEFKQGSVKNWVEFKKEFLQYSEGTLSREAIQRELDLPQKQGEPLDQFLWRKRDLYQTLYVDAEEEEIIQYVVGTLQPKFKRFLRHPLPKTLEQLIQRGMEVQDGLEQAAEPSVTPLPTEDETEALTPALTSESVASDRTQPE
For B4, the “stoichiometry N” value (cross-linking) was 2.

B5: purified wild-type human Arc (untagged) (natural protein)
chain: MELDHRTSGGLHAYPGPRGGQVAKPNVILQIGKCRAEMLEHVRRTHRHLLAEVSKQVERELKGLHRSVGKLESNLDGYVPTSDSQRWKKSIKACLCRCQETIANLERWVKREMHVWREVFYRLERWADRLESTGGKYPVGSESARHTVSVGVGGPESYCHEADGYDYTVSPYAITPPPAAGELPGQEPAEAQQYQPWVPGEDGQPSPGVDTQIFEDPREFLSHLEEYLRQVGGSEEYWLSQIQNHMNGPAKKWWEFKQGSVKNWVEFKKEFLQYSEGTLSREAIQRELDLPQKQGEPLDQFLWRKRDLYQTLYVDADEEEIIQYVVGTLQPKLKRFLRHPLPKTLEQLIQRGMEVQDDLEQAAEPAGPHLPVEDEAETLTPAPNSESVASDRTQPE
For B5, the “stoichiometry N” value (DLS) was 40 to 55 Arc molecules per capsid.

B6: purified Arc^s113-119A (untagged) (natural protein)
chain: MELDHRTSGGLHAYPGPRGGQVAKPNVILQIGKCRAEMLEHVRRTHRHLLAEVSKQVERELKGLHRSVGKLESNLDGYVPTSDSQRWKKSIKACLCRCQETIANLERWVKREAAAAAAAFYRLERWADRLESTGGKYPVGSESARHTVSVGVGGPESYCHEADGYDYTVSPYAITPPPAAGELPGQEPAEAQQYQPWVPGEDGQPSPGVDTQIFEDPREFLSHLEEYLRQVGGSEEYWLSQIQNHMNGPAKKWWEFKQGSVKNWVEFKKEFLQYSEGTLSREAIQRELDLPQKQGEPLDQFLWRKRDLYQTLYVDADEEEIIQYVVGTLQPKLKRFLRHPLPKTLEQLIQRGMEVQDDLEQAAEPAGPHLPVEDEAETLTPAPNSESVASDRTQPE
B6 was tested, and the “stoichiometry N” value (SEC-MALS [3]) was 2.

B7: Arc^s113-119A with an N-terminal MBP fusion tag (natural protein)
chain: MELDHRTSGGLHAYPGPRGGQVAKPNVILQIGKCRAEMLEHVRRTHRHLLAEVSKQVERELKGLHRSVGKLESNLDGYVPTSDSQRWKKSIKACLCRCQETIANLERWVKREAAAAAAAFYRLERWADRLESTGGKYPVGSESARHTVSVGVGGPESYCHEADGYDYTVSPYAITPPPAAGELPGQEPAEAQQYQPWVPGEDGQPSPGVDTQIFEDPREFLSHLEEYLRQVGGSEEYWLSQIQNHMNGPAKKWWEFKQGSVKNWVEFKKEFLQYSEGTLSREAIQRELDLPQKQGEPLDQFLWRKRDLYQTLYVDADEEEIIQYVVGTLQPKLKRFLRHPLPKTLEQLIQRGMEVQDDLEQAAEPAGPHLPVEDEAETLTPAPNSESVASDRTQPE
For B7, the “stoichiometry N” value (SAXS) was 2.
